The values below come from the RNAGym collection of RNA variant scans (doi:10.7554/elife.90254).

B1: OR4K15 (parent)
chain: GUUAACGGUCAUAGGCCAUGGAAACUAGGAGCACCAUUUCGCUGCCAGUGAAGAAAUGAACAAAGAAAAUCUGGGCCAGGCAGGCAUCAAAAGAAAUAGUCUUGCGCUCAACCAGAAAGUCUGUAAUCAUUUUAAGGGUA

In the data set the parent is B1. Put plainly: self-cleavage, relative activity (ratio to wild type); higher = more cleavage; in vitro, sequencing; the parent is a self-cleaving ribozyme.
As for U100A A129G, the self-cleavage was 0.23.
The value for U43A A52G was 1.6; that for U2C A22G was 1.11; that for A110G U122G was 0.26.
The value for A82G C109A was 0.05; that for A30U U103A was 0.53; that for C25A A95G was 0.89.
Consider A24U U37C, for which the self-cleavage stood at 1.82.
On to C10U A90C, for which the self-cleavage stood at 0.97.
The value for C40A A94G was 2.28.
In the case of A5G A62U, the self-cleavage amounted to 1.09.
As to U26A A118G, the self-cleavage is 0.34.
For the variant A11U A78U, the self-cleavage worked out at 0.49.
Take C35U G136U: the self-cleavage was 1.19.
U124A A125G: the self-cleavage is 0.91.
The value for A78C A111U was 0.01.
As for A62G C112G, the figure is 0; as for U19C U37A, 0.9.
Regarding C6U A11G, the self-cleavage amounted to 0.47.
As for U72C C76U, the figure is 0.22; as for G74U U132C, 0.18.
Consider U9C C17U, for which the self-cleavage is 1.8.
As for A90G U132A, the figure is 0.56.
In the case of A60U A62G, the self-cleavage is 1.72.
A69G U124C: the self-cleavage was 1.11.
Consider A66G G75A, for which the self-cleavage is 0.08.
The value for U49C A110G was 0.12; that for A89C U120C was 0.75.
The value for C34U U43A was 0.99; that for U9C A13G was 0.81.
As for C61U A94G, the figure is 1.63; as for A22G U124C, 0.38.
In the case of A52G U103C, the self-cleavage worked out at 0.45.
Turning to A52G A66U, the self-cleavage stood at 1.54.
The value for A24G A90G was 1.03; that for A86C G106U was 0.01.
The value for U9C C109A was 0.49; that for G31U A82G was 0.19; that for U26G A36G was 1.37.
For A64U A92C, the self-cleavage worked out at 1.53.
Consider A59U U124A, for which the self-cleavage came out at 0.51.
For A69G A114G, the self-cleavage amounted to 0.17.
As for A11U A129G, the figure is 1.27; as for A95G C101A, 0.52; as for A13G G123U, 1.33.
As for U2C A126U, the figure is 0.77; as for A55G A68U, 1.2.
As for A22U U37C, the figure is 0.85.
With U49C G138C, the self-cleavage turned out to be 1.54.
The value for A116U G136A was 0.07.
The value for U2G G93U was 1.01; that for A52U U127C was 0.98; that for U103C U108A was 0.02.
As for U37C C77U, the figure is 2.11.
In the case of A62C A96G, the self-cleavage worked out at 2.59.
As for U43A A110U, the figure is 2.05; as for U49G A51G, 0.95; as for U49C U103C, 1.01.
As to A66U A90G, the self-cleavage stood at 1.22.
As for A33G A92C, the figure is 0.81; as for U2C A51U, 0.82; as for A18G A59U, 1.65.
Take G44A A59G: the self-cleavage turned out to be 1.56.
The value for A62G A86U was 2.08; that for A64G A129C was 1.8; that for U122A U139C was 0.94.
Take A5G U49A: the self-cleavage was 0.9.
As for A56G A62G, the figure is 1.92; as for A91U A125G, 0.38.
The value for C88U U127C was 2.09.
On to G1A A33G, for which the self-cleavage turned out to be 0.78.
The value for A33G A62G was 1.11; that for A23G A47G was 0.86.
As for U26A A117G, the figure is 1.78; as for A126G A140U, 1.58; as for U39C A78G, 0.26.
The value for A51G U124A was 1.04.
In the case of A95U U130C, the self-cleavage turned out to be 0.47.
As for A11G G74C, the figure is 0.38.
As for U49A A68G, the self-cleavage was found to be 0.95.
As for G15A A126G, the figure is 1.51.
The value for C107A A114U was 0.
For U39A A111G, the self-cleavage is 0.02.
Turning to A11C U38C, the self-cleavage is 1.72.
As for A69G A95G, the self-cleavage came to 1.8.
In the case of G44A A89G, the self-cleavage stood at 1.14.
The value for A18U C101A was 0.05.
As for U2C U38A, the figure is 1.07.
The value for A5G A22G was 0.81; that for U43C U120A was 2.06; that for A5G A114G was 0.41.
Turning to A116U U127G, the self-cleavage was 0.11.
Regarding A67G G93U, the self-cleavage was found to be 1.17.
Regarding A22G C107U, the self-cleavage came out at 0.06.
Regarding U57A A110C, the self-cleavage was determined as 0.17.
Regarding U26C U38C, the self-cleavage stood at 1.45.
The value for U103C U139C was 1.15; that for A59G A110U was 0.97.
The value for A59G A110G was 0.17.
Regarding A18U A62G, the self-cleavage worked out at 1.37.
As for U26C A95G, the figure is 1.75.
As for U9A A86U, the figure is 1.37; as for A52U U72G, 0.39; as for C6G U130C, 0.63.
The value for G65U U87C was 2.23; that for A78U U132C was 0.48.
With A67G A89G, the self-cleavage came to 0.82.
The value for A18U A63G was 0.84; that for G75C A116G was 0.05; that for A82U U103C was 0.03.
As for A67U A135G, the figure is 2.46; as for U72C U120A, 0.13.
Consider A94U A135G, for which the self-cleavage was 2.33.
As for A24G A68G, the self-cleavage came to 1.01.
As for U9C U49G, the figure is 0.96; as for A30C A36G, 2.26.
For the variant G93U A134G, the self-cleavage was 1.18.
Turning to A86G U120A, the self-cleavage came to 1.8.
The value for C32U A64G was 1.66; that for C61U G115A was 0.08; that for U49C A98G was 0.48.
The value for U87C A134G was 1.63.
As for U2G U12A, the figure is 1.45; as for A78U A86G, 0.11; as for A36U A110G, 0.21.
In the case of U49C A129U, the self-cleavage was determined as 0.92.
As for C88U U108C, the figure is 0.01; as for A59G U120C, 0.97.
Regarding U49C U108C, the self-cleavage was 0.01.
Regarding A63G A92U, the self-cleavage came out at 1.35.
The value for A94G A134U was 1.58.
The value for A56G A64G was 1.44; that for A22C U139C was 0.51.
The value for U3A G65U was 0.33; that for A22C A69U was 1.74; that for G31A A91U was 1.99.
For G80C U103C, the self-cleavage turned out to be 0.03.
As for G1A U49C, the figure is 1.35.
The value for A54C U57C was 1.29.
With U100C U108C, the self-cleavage came to 0.01.
As for C10U U39A, the self-cleavage came to 0.81.
Take U43A A56G: the self-cleavage is 1.86.
As for A23U A126G, the figure is 0.96; as for G41A U43A, 1.69; as for A66G U122C, 1.67.
The value for A47U C105U was 0.14.
As to U3A A22G, the self-cleavage was determined as 1.2.
The value for A89G U131C was 0.59; that for A62G G136A was 2.2; that for U120C U132A was 1.42.
As for U87A C88U, the figure is 1.17; as for U38C A51G, 1.33.
As for A68U A116G, the figure is 1.07; as for U43C A89G, 2.04; as for A11U A22G, 1.53.
Take A69G U102A: the self-cleavage worked out at 0.58.
As for G41C A69G, the figure is 1.84.
As for A90G A125U, the figure is 1.7; as for G28A U108A, 0.01.
The value for G73U U122C was 0.1.
Take A23G U132C: the self-cleavage worked out at 1.07.
The value for C105U A116G was 0.03.
For the variant U38A A94G, the self-cleavage worked out at 1.85.
As for A52G C121G, the figure is 2.33; as for G41A A64G, 2.12; as for G29U A78G, 0.24.
The value for A55C U102C was 1.41.
